According to article PMC10622425:
Where “and” joins values, the source holds several entries; their conditions need not be identical. Equal values may be shown once.

Molecular target: M2 protein of human Influenza A virus A/WSN/33 (H1N1), wild type (Influenza A virus A/WSN/33 (H1N1))

M2 protein of human Influenza A virus A/WSN/33 (H1N1), wild type (natural protein)
stoichiometry N: 4 and 2 and 3
